Measurements reported in PMC4821243, “Heparin binding preference and structures in the fibroblast growth factor family parallel their evolutionary diversification” (Open Biology, 2016).

Biological target: the molecule itself
Assay: SEC-MALS; Superdex 200 HR10/300 in series with Wyatt Dawn8+ and Optilab T-rEX, 22°C; 100 µl, 100 µg protein; 150 mM NaCl with 50 mM HEPES or 50 mM Tris-Cl, pH 7.4; 0.75 ml/min

B1: Histag-FGF20 (recombinant human fibroblast growth factor 20) (natural protein)
chain: not shown
notes: Fibroblast growth factor 20, human; Made in E. coli, so not glycosylated; source: Escherichia coli, expressed and purified as described [37]
- stoichiometry N: 2
